Experimental data from publication doi:10.1101/2024.04.22.590616.
Read-outs that look alike come from different tables or passages of the source.

T1: Csm2;Psy3;Shu1;Shu2 (Saccharomyces cerevisiae?;Saccharomyces …, UniProt P40465;Q12318;P38751;P38957 1-213;1-242;1-150;1-223, |||)
T1 sequence 1: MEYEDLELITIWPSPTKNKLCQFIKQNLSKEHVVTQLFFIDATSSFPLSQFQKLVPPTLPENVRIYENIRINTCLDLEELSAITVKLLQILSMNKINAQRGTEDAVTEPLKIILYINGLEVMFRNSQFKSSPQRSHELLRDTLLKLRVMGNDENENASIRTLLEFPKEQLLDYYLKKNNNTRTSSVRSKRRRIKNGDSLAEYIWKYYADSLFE
T1 sequence 2: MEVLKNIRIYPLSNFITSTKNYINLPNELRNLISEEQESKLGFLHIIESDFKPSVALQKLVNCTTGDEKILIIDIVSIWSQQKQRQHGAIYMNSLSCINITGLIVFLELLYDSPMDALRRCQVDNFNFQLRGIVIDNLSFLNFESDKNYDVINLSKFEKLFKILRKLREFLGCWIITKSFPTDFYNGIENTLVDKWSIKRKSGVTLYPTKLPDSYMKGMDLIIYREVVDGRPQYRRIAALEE
T1 sequence 3: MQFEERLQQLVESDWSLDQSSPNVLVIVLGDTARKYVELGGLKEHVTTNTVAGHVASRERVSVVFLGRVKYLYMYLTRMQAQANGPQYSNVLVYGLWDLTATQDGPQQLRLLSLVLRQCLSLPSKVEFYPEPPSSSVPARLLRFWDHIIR
T1 sequence 4: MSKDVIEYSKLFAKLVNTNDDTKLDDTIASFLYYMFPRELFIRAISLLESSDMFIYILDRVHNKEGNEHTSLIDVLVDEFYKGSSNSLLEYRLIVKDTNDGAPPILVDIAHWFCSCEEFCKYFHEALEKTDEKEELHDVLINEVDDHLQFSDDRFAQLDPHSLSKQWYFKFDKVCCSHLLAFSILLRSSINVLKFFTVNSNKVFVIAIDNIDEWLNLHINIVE

T2: Csm2;Psy3 (Saccharomyces cerevisiae?;Saccharomyces …, UniProt P40465;Q12318 1-213;1-242, |)
T2 sequence 1: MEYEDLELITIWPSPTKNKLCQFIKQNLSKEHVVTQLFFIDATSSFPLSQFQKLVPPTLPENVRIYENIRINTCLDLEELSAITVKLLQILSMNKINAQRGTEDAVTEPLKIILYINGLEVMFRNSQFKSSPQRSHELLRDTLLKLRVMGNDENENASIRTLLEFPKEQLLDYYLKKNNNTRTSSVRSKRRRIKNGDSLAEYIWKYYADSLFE
T2 sequence 2: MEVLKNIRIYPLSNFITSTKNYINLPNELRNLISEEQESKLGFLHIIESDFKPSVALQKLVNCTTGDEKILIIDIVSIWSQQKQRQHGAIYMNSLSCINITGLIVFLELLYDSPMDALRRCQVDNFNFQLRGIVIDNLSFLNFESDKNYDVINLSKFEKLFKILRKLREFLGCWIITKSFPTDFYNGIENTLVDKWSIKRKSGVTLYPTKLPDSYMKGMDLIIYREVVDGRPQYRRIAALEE


Experiments:
Experiment in all cases: fluorescence polarization
Csm2;Psy3;Shu1;Shu2 [1] = target: T1, Csm2;Psy3;Shu1;Shu2
Csm2;Psy3 [2] = target: T2, Csm2;Psy3
Csm2;Psy3;Shu1;Shu2 [3] = target: T1, Csm2;Psy3;Shu1;Shu2; remark: listed apart in the source
Csm2;Psy3 [4] = target: T2, Csm2;Psy3; remark: listed apart in the source
Csm2;Psy3;Shu1;Shu2 [5] = target: T1, Csm2;Psy3;Shu1;Shu2; remark: listed apart in the source
Csm2;Psy3 [6] = target: T2, Csm2;Psy3; remark: listed apart in the source
Csm2;Psy3;Shu1;Shu2 [7] = target: T1, Csm2;Psy3;Shu1;Shu2; remark: listed apart in the source
Csm2;Psy3 [8] = target: T2, Csm2;Psy3; remark: listed apart in the source
Csm2;Psy3;Shu1;Shu2 [9] = target: T1, Csm2;Psy3;Shu1;Shu2; remark: listed apart in the source

Binder | Kd (Csm2;Psy3;Shu1;Shu2 [1]) | Kd (Csm2;Psy3 [2]) | Kd (Csm2;Psy3;Shu1;Shu2 [3]) | Kd (Csm2;Psy3 [4]) | Kd (Csm2;Psy3;Shu1;Shu2 [5]) | Kd (Csm2;Psy3 [6]) | Kd (Csm2;Psy3;Shu1;Shu2 [7]) | Kd (Csm2;Psy3 [8]) | Kd (Csm2;Psy3;Shu1;Shu2 [9])
Fork (20nt) (dsDNA) DNA 1: TTTTTTTTTTTTTTTTTTTTCTTGACAAGCTTGCGCACT DNA 2: AGTGCGCAAGCTTGTCAAGGCACTTTTTTTTTTTTTTTT | 2.06 ± 0.13 µM | 1350 ± 60 nM | 860 ± 70 nM | 740 ± 50 nM | 1030 ± 120 nM | 750 ± 70 nM | 970 ± 100 nM | 780 ± 50 nM | 
5'-overhang (20nt) (dsDNA) DNA 1: TTTTTTTTTTTTTTTTTTTTCTTGACAAGCTTGCGCACT DNA 2: AGTGCGCAAGCTTGTCAAG | 2.44 ± 0.2 µM | 1180 ± 100 nM | 1580 ± 160 nM | 430 ± 70 nM | 1150 ± 110 nM | 950 ± 120 nM | 2420 ± 220 nM | 760 ± 90 nM | 
ds39 (dsDNA) DNA 1: TTTTTTTTTTTTTTTTTTTTCTTGACAAGCTTGCGCACT DNA 2: AGTGCGCAAGCTTGTCAAGAAAAAAAAAAAAAAAAAAAA |  | 1490 ± 130 nM | 6850 ± 490 nM | 1540 ± 80 nM | 7410 ± 610 nM | 1450 ± 130 nM | 5800 ± 400 nM | 1460 ± 120 nM | 7.4 ± 0.51 µM
TTTTTTTTTTTTTTTTTTTTCTTGACAAGCTTGCGCACT (ssDNA) [ss39] | 2.76 ± 0.08 µM | 1650 ± 180 nM | 3190 ± 270 nM | 1490 ± 180 nM | 2770 ± 250 nM | 1320 ± 120 nM | 2370 ± 220 nM | 1980 ± 200 nM | 
3'-overhang (20nt) (dsDNA) DNA 1: CTTGACAAGCTTGCGCACT DNA 2: AGTGCGCAAGCTTGTCAAGGCACTTTTTTTTTTTTTTTT | 2.82 ± 0.19 µM | 1920 ± 280 nM | 2530 ± 170 nM | 1600 ± 130 nM |  | 1270 ± 120 nM | 2710 ± 220 nM | 680 ± 50 nM | 
ACTTACAGCACAGCGGTTTTT (ssDNA) [ss21] | 3.43 ± 0.16 µM |  |  |  |  |  |  |  | 
ACTGCCCTTACAGCACAGCGGTTTTT (ssDNA) [ss26] | 3.54 ± 0.24 µM |  |  |  |  |  |  |  | 
ds26 (dsDNA) DNA 1: ACTGCCCTTACAGCACAGCGGTTTTT DNA 2: AAAAACCGCTGTGCTGTAAGGGCAGT | 7.23 ± 0.14 µM |  |  |  |  |  |  |  | 
ds21 (dsDNA) DNA 1: ACTTACAGCACAGCGGTTTTT DNA 2: AAAAACCGCTGTGCTGTAAGT | 6.21 ± 0.19 µM |  |  |  |  |  |  |  | 
3'-overhang (5nt) (dsDNA) DNA 1: ACTGCCCTTACAGCACAGCGGTTTTT DNA 2: CCGCTGTGCTGTAAGGGCAGT | 4.86 ± 0.28 µM |  |  |  |  |  |  |  | 
Fork (10nt) (dsDNA) DNA 1: ACTGCCCTTACAGCACAGCGGTTTTTTTTTT DNA 2: TTTTTTTTTTCCGCTGTGCTGTAAGGGCAGT | 5.84 ± 0.32 µM |  |  |  |  |  |  |  | 
ACTGCCCTTACAGCACAGCGGTTTTTTTTTT (ssDNA) [ss31] | 3.31 ± 0.07 µM |  |  |  |  |  |  |  | 
3'-overhang (10nt) (dsDNA) DNA 1: ACTGCCCTTACAGCACAGCGGTTTTTTTTTT DNA 2: CCGCTGTGCTGTAAGGGCAGT | 4.5 ± 0.12 µM |  |  |  |  |  |  |  | 
ss60 (ssDNA) DNA: TTTTTTTTTTTTTTTTTTTTTTTTTTTTTTCTTGACAAGCTTGCGCACTTAGGCCTCTAG | 2.37 ± 0.13 µM |  | 2400 ± 230 nM |  | 2370 ± 290 nM |  | 2010 ± 260 nM |  | 
Fork (5nt) (dsDNA) DNA 1: ACTGCCCTTACAGCACAGCGGTTTTT DNA 2: TTTTTCCGCTGTGCTGTAAGGGCAGT | 4.08 ± 0.19 µM |  |  |  |  |  |  |  | 
